Data published in PMC4457943.
Read-outs that look alike come from different tables or passages of the source. Blank lines part the entries; values can stand above or below the molecule they belong to.

Legend:
Test in all cases: FRET or BRET
[1] = biological target: MHC class I heavy chain (human (endogenous in Kit225/IL-9R and MT-2)) (UniProt P04439)
[2] = biological target: MHC class II glycoprotein (HLA-DR) (human (endogenous in Kit225/IL-9R and MT-2))
[3] = biological target: MHC class I heavy chain (human (endogenous in Kit225/IL-9R and MT-2)) (UniProt P04439); remark: listed apart in the source
[4] = biological target: MHC class II glycoprotein (HLA-DR) (human (endogenous in Kit225/IL-9R and MT-2)); remark: listed apart in the source

FRET efficiency E (%) [1]: 22.5% | FRET efficiency E (%) [2]: 11.9% | FRET efficiency E (%) [3]: 21.7% | FRET efficiency E (%) [4]: 21.9%
Molecule: IL-2 receptor α chain (IL-2Rα) (from UniProt P01589 22-272)

FRET efficiency E (%) [3]: 17.2% | FRET efficiency E (%) [4]: 15.9%
B1: interleukin-9 receptor α-subunit (IL-9Rα), stably transfected in Kit225/IL-9R cells (receptor)
chain: SVTGEGQGPRSRTFTCLTNNILRIDCHWSAPELGQGSSPWLLFTSNQAPGGTHKCILRGSECTVVLPPEAVLVPSDNFTITFHHCMSGREQVSLVDPEYLPRRHVKLDPPSDLQSNISSGHCILTWSISPALEPMTTLLSYELAFKKQEEAWEQAQHRDHIVGVTWLILEAFELDPGFIHEARLRVQMATLEDDVVEEERYTGQWSEWSQPVCFQAPQRQGPLIPPWGWPGNTLVAVSIFLLLTGPTYLLFKLSPRVKRIFYQNVPSPAMFFQPLYSVHNGNFQTWMGAHGAGVLLSQDCAGTPQGALEPCVQEATALLTCGPARPWKSVALEEEQEGPGTRLPGNLSSEDVLPAGCTEWRVQTLAYLPQEDWAPTSLTRPAPPDSEGSRSSSSSSSSNNNNYCALGCYGGWHLSALPGNTQSSGPIPALACGLSCDHQGLETQQGVAWVLAGHCQRPGLHEDLQGMLLPSVLSKARSWTF

FRET efficiency E (%) [3]: 13.5% | FRET efficiency E (%) [4]: 10.2%
B2: interleukin-9 receptor α-subunit (IL-9Rα), endogenous in MT-2 cells (receptor)
chain: B1 chain
